Laboratory results as given in patent US20040213788A1 (published 2004).

T1: soluble human RANKL protein (human, UniProt O14788 140-317, limits assumed, biotinylated at a 20:1 molar ratio of NHS-biotin to protein (in the competition ELISA only))
T1 sequence (looked up): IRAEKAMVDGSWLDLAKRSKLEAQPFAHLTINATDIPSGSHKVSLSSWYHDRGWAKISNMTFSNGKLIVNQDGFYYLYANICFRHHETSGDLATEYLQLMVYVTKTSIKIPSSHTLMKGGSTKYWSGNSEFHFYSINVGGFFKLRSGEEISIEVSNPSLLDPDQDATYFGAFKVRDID

B1: mouse monoclonal antibody 14F3 (antibody, V domains shown)
VH: EVQLVESGGDLVKPGGSLKLSCAASGFTFSRYGMSWVRQTPDKRLEWVATISSGGSYTYYPDSVKGRFTISRDNAKNTLYLQMSSLKSEDTAMYYCARLDGYNYRWYFDVWGTGTTVTVSS
VL: DIVMTQSHKFMSTSVGDRVSITCKASQDVSSAVAWYQQKPGQSPKLLIYSASYRYTGVPDRFTGSGSGTDFTFTISSVQAEDLAVYYCQQHYSSPRTFGGGTNLEIKR
notes: Whole mouse IgG2a/kappa purified from hybridoma; also called 14F3 mAb; RANKL mAb 14F3
B2: human RANK-Fc fusion protein (Fc fusion, UniProt Q9Y6Q6 30-212, looked up, not shown: a dimerising Fc or GST)
chain: IAPPCTSEKHYEHLGRCCNKCEPGKYMSSKCTTTSDSVCLPCGPDEYLDSWNEEDKCLLHKVCDTGKALVAVVAGNSTTPRRCACTAGYHWSQDCECCRRNTECAPGLGAQHPLQLNKDTVCKPCLAGYFSDAFSSTDKCRPWTNCTFLGKRVEHHGTEKSDAVCSSSLPARKPPNEPHVYLP
B3: OPG-Fc (Fc fusion, UniProt O00300 22-201, looked up)
chain: ETFPPKYLHYDEETSHQLLCDKCPPGTYLKQHCTAKWKTVCAPCPDHYYTDSWHTSDECLYCSPVCKELQYVKQECNRTHNRVCECKEGRYLEIEFCLKHRSCPPGFGVVQAGTPERNTVCKRCPDGFFSNETSSKAPCRKHTNCSVFGLLLTQKGNATHDNICSGNSESTQKCGIDVTL
notes: also called osteoprotegerin-Fc; not shown: Fc part; not described

Assays:
[1] = target: T1, soluble human RANKL protein; test: cell-based or functional assay
[2] = target: T1, soluble human RANKL protein; test: not described; paragraph 32 names optical biosensor analysis for Kd
[3] = target: T1, soluble human RANKL protein; test: competition ELISA: inhibition of biotinylated shRANKL (0.43 nM) binding to coated RANK-Fc
Description: (§1) A. A competition ELISA was established using a human RANK-Fc fusion protein coated on plastic and a biotinylated soluble human RANKL protein for detection in solution. The RANK-FC and RANKL proteins were produced in CHO cells and Pichia pastoris, respectively, and purified to >90% homogeneity. The shRANKL (soluble, human RANKL) protein was biotinylated at a 20:1 molar ratio of NHS-biotin to protein (Pierce, Rockford, Ill.) according to the manufacturer's specifications. 96-well ELISA plates were coated overnight at 4° C. with 50 ng/well ([…]) RANK-Fc in pH 9.6 carbonate-bicarbonate buffer. Plates were washed in pH 7.4 Tris-Saline buffer containing 0.1% Tween 20 and blocked for 2 h at RT in 1% BSA/PBS. Competitor proteins (RANK-Fc; death receptor 5 (DR5)-Fc; OPG-Fc; RANKL mAb 14F3) were diluted in 0.01% Tween 20/PBS and added to wells prior to the addition of biotinylated shRANKL (0.43 nM) and the combined samples were incubated for 2 hrs at room temperature. The amount of biotinylated shRANKL bound to coated RANK-Fc (+/−competitor) was measured using alkaline phosphatase conjugated streptavidin. The substrate for signal detection was 105 PNPP (Pierce Inc., Rockford, Ill.) and absorbence measured at 405 nm using a Spectra Max 340 plate reader.

[4] = target: T1, soluble human RANKL protein; test: competition ELISA: soluble RANK-Fc inhibits biotinylated shRANKL (0.43 nM) binding to coated RANK-Fc
Description: as §1

Binder	IC50, formation of multinuclear cells (human monocyte osteoclastogenesis) [1] [µg/mL]	Kd [2] [nM]	IC50 [3] [nM]	IC50 [4] [nM]
B1	~4	~0.1	~2	–
B2	~0.5	–	–	~6
B3	–	–	~0.5	–
